Data as given in patent US20170095575A1 (BIOMED VALLEY DISCOVERIES, published 2017).

T1: mTEM8-Fc (UniProt Q9CZ52 31-319, limits assumed)
T1 construct: not shown: Fc part
T1 sequence (looked up): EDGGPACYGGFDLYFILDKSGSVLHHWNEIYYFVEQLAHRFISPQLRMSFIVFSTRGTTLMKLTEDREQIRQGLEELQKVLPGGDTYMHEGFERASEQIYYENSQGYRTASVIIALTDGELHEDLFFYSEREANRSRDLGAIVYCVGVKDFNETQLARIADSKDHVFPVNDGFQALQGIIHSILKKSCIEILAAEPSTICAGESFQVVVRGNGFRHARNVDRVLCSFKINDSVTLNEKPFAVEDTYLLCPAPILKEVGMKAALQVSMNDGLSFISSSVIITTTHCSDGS

T2: hTEM8-AP (Homo sapiens, UniProt Q9H6X2 33-321)
T2 sequence: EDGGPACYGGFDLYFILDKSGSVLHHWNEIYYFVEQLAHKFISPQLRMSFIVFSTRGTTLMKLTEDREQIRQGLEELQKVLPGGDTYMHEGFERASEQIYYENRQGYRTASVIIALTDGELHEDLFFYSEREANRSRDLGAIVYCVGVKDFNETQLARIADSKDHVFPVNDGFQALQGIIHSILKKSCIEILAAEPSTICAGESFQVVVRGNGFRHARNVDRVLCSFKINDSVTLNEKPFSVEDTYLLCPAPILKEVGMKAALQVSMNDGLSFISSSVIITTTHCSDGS


Columns and labels:
mTEM8-Fc = target: T1, mTEM8-Fc; experiment: Biacore affinity measurement of Fab
hTEM8-AP = target: T2, hTEM8-AP; experiment: Biacore affinity measurement of Fab

| Binder | Kd (mTEM8-Fc) [pM] | koff (mTEM8-Fc) [s⁻¹] | kon (mTEM8-Fc) [M⁻¹ s⁻¹] | Kd (hTEM8-AP) [pM] | koff (hTEM8-AP) [s⁻¹] | kon (hTEM8-AP) [M⁻¹ s⁻¹] |
| --- | --- | --- | --- | --- | --- | --- |
| M825 anti-TEM8 fragment antigen-binding (Fab) (Fab, V domains shown, also called M825 Fab) VH: QVQLVQSGAEVKKPGTSVKVSCKVPGYTFSSYAISWVRQAPGQGLEWMGGIIPIFGTTNYAQKFQGRVTITGEESTSTVYMELSSLRSEDTAVYYCARDTDYMFDYWGQGTLVTVSS VL: SSELTQDPVVSVALGETVSITCQGDNLRDFYASWYQQKPGQAPLLVMYGKNRRPSGIPDRFSGSTSGNTLSLTITGAQAEDEADYYCSSRDNSKHVVFGGGTKVTVL | 52.6 | 8.94e-05 | 1.7e+06 | 59.1 | 0.00018 | 3.05e+06 |
| M830 anti-TEM8 fragment antigen-binding (Fab) (Fab, V domains shown, also called M830 Fab) VH: EVQLVESGGGVVQPGRSVRLSCAASGFTFSTYTMHWVRQAPGKGLEWVAIISNDGSNKYYADPVRGRFTISRDNSKNTLYLQMNSLRAEDTAVYYCVRGSSWYRGNWFDPWGQGTLVTVSS VL: DIQMTQSPSSLSASVGDRVTIACRASQTISRYLNWYQQKPGKAPKLLIYAASSLQSGVSSRFSGSGSGTEFTLTISSLQPEDFATYFCQQTYSPPITFGQGTRLEIKR | 3740 | 0.0029 | 775000 | 1570 | 0.000953 | 607000 |
